Laboratory results reported in patent US20110118447A1.
Positions count from the first letter of the chain named. Numbers in names are those of the source. Each block holds one binder with its values, some of them ahead of it.

Assays:
[1] = biological target: binding partner of C5A (XPA23); test: Biacore
[2] = biological target: binding partner (antigen) of C5A (XPA23); test: Biacore, K-off, fold vs original

B3: C5A (XPA23) VH R59L (antibody, V domains shown)
VH: EVQLLESGGGLVQPGGSLRLSCAASGFTFSKYFMFWVRQAPGKGLEWVSVISPSGGMTLYADSVKGRFTISRDNSKNTLYLQMNSLRAEDTAVYYCARVGYGGNSDYWGQGTLVTVSS
VL: DIQMTQSPSSVSASVGDRLTIICRASQDINRWLAWYQQTPGNAPKLLIHSATSLQSGVPSRFSGSGSGTDFTLTINSLQPEDFATYYCQQADSFPLTFGGGTKVEIK
- fold difference in affinity vs original [1]: 0.08 fold
- fold difference in affinity vs original [2]: 0.08 fold

B4: C5A (XPA23) VH G56I (antibody, V domains shown)
VH: B3 VH with G56I, L59R
VL: B3 VL
- fold difference in affinity vs original [1]: 1.71 fold
- fold difference in affinity vs original [2]: 1.71 fold

B5: C5A (XPA23) VH G56P (antibody, V domains shown)
VH: B3 VH with G56P, L59R
VL: B3 VL
- fold difference in affinity vs original [1]: 0.85 fold
- fold difference in affinity vs original [2]: 0.85 fold

B6: C5A (XPA23) VH G55I (antibody, V domains shown)
VH: B3 VH with G55I, L59R
VL: B3 VL
- fold difference in affinity vs original [1]: 0.86 fold
- fold difference in affinity vs original [2]: 0.86 fold

B8: C5A (XPA23) VH G100W (antibody, V domains shown)
VH: B3 VH with L59R, G100W
VL: B3 VL
- fold affinity vs original [1]: 0.05 fold
- fold difference in affinity vs original [2]: 0.05 fold

B11: C5A (XPA23) VH M57L (antibody, V domains shown)
VH: B3 VH with M57L, L59R
VL: B3 VL
- fold difference in affinity vs original [1]: 0.06 fold
- fold difference in affinity vs original [2]: 0.06 fold

B13: C5A (XPA23) VH G56A (antibody, V domains shown)
VH: B3 VH with G56A, L59R
VL: B3 VL
- fold difference in affinity vs original [1]: 1.21 fold
- fold difference in affinity vs original [2]: 1.21 fold

B15: C5A (XPA23) VH R59F (antibody, V domains shown)
VH: B3 VH with L59F
VL: B3 VL
- fold affinity vs original [1]: 0.92 fold
- fold difference in affinity vs original [2]: 0.92 fold

B16: C5A (XPA23) VH M57F (antibody, V domains shown)
VH: B3 VH with M57F, L59R
VL: B3 VL
- fold affinity vs original [1]: 1.03 fold
- fold difference in affinity vs original [2]: 1.03 fold

B19: C5A (XPA23) VH R59G (antibody, V domains shown)
VH: B3 VH with L59G
VL: B3 VL
- fold difference in affinity vs original [1]: 1.04 fold
- fold difference in affinity vs original [2]: 1.04 fold

B20: C5A (XPA23) VH M57I (antibody, V domains shown)
VH: B3 VH with M57I, L59R
VL: B3 VL
- fold difference in affinity vs original [1]: 0.03 fold
- fold difference in affinity vs original [2]: 0.03 fold

B22: C5A (XPA23) VH R59P (antibody, V domains shown)
VH: B3 VH with L59P
VL: B3 VL
- fold difference in affinity vs original [1]: 0.07 fold
- fold difference in affinity vs original [2]: 0.07 fold

B23: C5A (XPA23) VH G55L (antibody, V domains shown)
VH: B3 VH with G55L, L59R
VL: B3 VL
- fold difference in affinity vs original [1]: 0.08 fold
- fold difference in affinity vs original [2]: 0.08 fold

B25: C5A (XPA23) VH M57V (antibody, V domains shown)
VH: B3 VH with M57V, L59R
VL: B3 VL
- fold difference in affinity vs original [1]: 0.03 fold
- fold difference in affinity vs original [2]: 0.03 fold

B27: C5A (XPA23) VH G56W (antibody, V domains shown)
VH: B3 VH with G56W, L59R
VL: B3 VL
- fold affinity vs original [1]: 1.51 fold
- fold difference in affinity vs original [2]: 1.51 fold

B31: C5A (XPA23) VH G56L (antibody, V domains shown)
VH: B3 VH with G56L, L59R
VL: B3 VL
- fold difference in affinity vs original [1]: 1.41 fold
- fold difference in affinity vs original [2]: 1.41 fold

B32: C5A (XPA23) VH M57A (antibody, V domains shown)
VH: B3 VH with M57A, L59R
VL: B3 VL
- fold difference in affinity vs original [1]: 0.03 fold
- fold difference in affinity vs original [2]: 0.03 fold

B33: C5A (XPA23) VH R59W (antibody, V domains shown)
VH: B3 VH with L59W
VL: B3 VL
- fold affinity vs original [1]: 0.09 fold
- fold difference in affinity vs original [2]: 0.09 fold

B35: C5A (XPA23) VH G56F (antibody, V domains shown)
VH: B3 VH with G56F, L59R
VL: B3 VL
- fold affinity vs original [1]: 1.41 fold
- fold difference in affinity vs original [2]: 1.41 fold

The next lines start with the values.

- fold affinity vs original [1]: 0.87 fold
- fold difference in affinity vs original [2]: 0.87 fold
B1: C5A (XPA23) VH S54F (antibody, V domains shown)
VH: B3 VH with S54F, L59R
VL: B3 VL

- fold difference in affinity vs original [1]: 0.83 fold
- fold difference in affinity vs original [2]: 0.83 fold
B2: C5A (XPA23) VH Y101I (antibody, V domains shown)
VH: B3 VH with L59R, Y101I
VL: B3 VL

- fold difference in affinity vs original [1]: 0.99 fold
- fold difference in affinity vs original [2]: 0.99 fold
B7: C5A (XPA23) VH T58V (antibody, V domains shown)
VH: B3 VH with T58V, L59R
VL: B3 VL

- fold difference in affinity vs original [1]: 0.95 fold
- fold difference in affinity vs original [2]: 0.95 fold
B9: C5A (XPA23) VH T58L (antibody, V domains shown)
VH: B3 VH with T58L, L59R
VL: B3 VL

- fold difference in affinity vs original [1]: 0.06 fold
- fold difference in affinity vs original [2]: 0.06 fold
B10: C5A (XPA23) VH S54P (antibody, V domains shown)
VH: B3 VH with S54P, L59R
VL: B3 VL

- fold difference in affinity vs original [1]: 0.03 fold
- fold difference in affinity vs original [2]: 0.03 fold
B12: C5A (XPA23) VH V99A (antibody, V domains shown)
VH: B3 VH with L59R, V99A
VL: B3 VL

- fold affinity vs original [1]: 0.81 fold
- fold difference in affinity vs original [2]: 0.81 fold
B14: C5A (XPA23) VH Y101W (antibody, V domains shown)
VH: B3 VH with L59R, Y101W
VL: B3 VL

- fold affinity vs original [1]: 0.85 fold
- fold difference in affinity vs original [2]: 0.85 fold
B17: C5A (XPA23) VH Y101F (antibody, V domains shown)
VH: B3 VH with L59R, Y101F
VL: B3 VL

- fold affinity vs original [1]: 1.07 fold
- fold difference in affinity vs original [2]: 1.07 fold
B18: C5A (XPA23) VH S54W (antibody, V domains shown)
VH: B3 VH with S54W, L59R
VL: B3 VL

- fold difference in affinity vs original [1]: 0.04 fold
- fold difference in affinity vs original [2]: 0.04 fold
B21: C5A (XPA23) VH Y101P (antibody, V domains shown)
VH: B3 VH with L59R, Y101P
VL: B3 VL

- fold affinity vs original [1]: 0.93 fold
- fold difference in affinity vs original [2]: 0.93 fold
B24: C5A (XPA23) VH T58W (antibody, V domains shown)
VH: B3 VH with T58W, L59R
VL: B3 VL

- fold affinity vs original [1]: 1.04 fold
- fold difference in affinity vs original [2]: 1.04 fold
B26: C5A (XPA23) VH T58F (antibody, V domains shown)
VH: B3 VH with T58F, L59R
VL: B3 VL

- fold difference in affinity vs original [1]: 1.81 fold
- fold difference in affinity vs original [2]: 1.81 fold
B28: C5A (XPA23) VH T58P (antibody, V domains shown)
VH: B3 VH with T58P, L59R
VL: B3 VL

- fold difference in affinity vs original [1]: 0.04 fold
- fold difference in affinity vs original [2]: 0.04 fold
B29: C5A (XPA23) VH Y101A (antibody, V domains shown)
VH: B3 VH with L59R, Y101A
VL: B3 VL

- fold difference in affinity vs original [1]: 1.91 fold
- fold difference in affinity vs original [2]: 1.91 fold
B30: C5A (XPA23) VH Y101L (antibody, V domains shown)
VH: B3 VH with L59R, Y101L
VL: B3 VL

- fold difference in affinity vs original [1]: 0.09 fold
- fold difference in affinity vs original [2]: 0.09 fold
B34: C5A (XPA23) VH Y101V (antibody, V domains shown)
VH: B3 VH with L59R, Y101V
VL: B3 VL

- fold difference in affinity vs original [1]: 0.14 fold
- fold difference in affinity vs original [2]: 0.14 fold
B36: C5A (XPA23) VH T58A (antibody, V domains shown)
VH: B3 VH with T58A, L59R
VL: B3 VL

- fold difference in affinity vs original [1]: 0.95 fold
- fold difference in affinity vs original [2]: 0.95 fold
B37: C5A (XPA23) VH T58G (antibody, V domains shown)
VH: B3 VH with T58G, L59R
VL: B3 VL

- fold difference in affinity vs original [1]: 0.95 fold
- fold difference in affinity vs original [2]: 0.95 fold
B38: C5A (XPA23) VH T58I (antibody, V domains shown)
VH: B3 VH with T58I, L59R
VL: B3 VL

- fold affinity vs original [1]: 0.03 fold
- fold difference in affinity vs original [2]: 0.03 fold
B39: C5A (XPA23) VH V99F (antibody, V domains shown)
VH: B3 VH with L59R, V99F
VL: B3 VL
